Biological target: bovine heart cytochrome c oxidase (bovine) (UniProt P00396)
Assay: crystal structure; co-crystallised by the batch-wise method at 277 K; 15 mM sodium phosphate pH 8.0, DM and FOM, Cyt.c/CcO molar ratio 1.2, ~5% PEG 4000; ferri-Cyt.c and oxidized CcO; crystals soaked with 50 uM Cyt.c; refined at 2.0 A

stoichiometry N: 2
Substance: bovine heart cytochrome c oxidase (from UniProt P00396 1-514; P68530 1-227; P00429 1-86) (complex)

— PMC5286356
